Laboratory results as given in patent publication US20250171549A1 (Amgen, published 2025).
Values belong to the binder of their own block, whether it stands above or below them. Where no end group is shown, it is not given here.

Tests used:
[1] = target: T1, cynomolgus monkey CCR8 (comprising threonine at position four) (cynomolgus monkey, UniProt O97665 1-356 (rhesus entry)); test: KinExA, 293T cells expressing cynomolgus CCR8
T1 construct: also called Cyno CCR8; cynomolgus CCR8
Description: For each equilibrium set, reference point controls included a sample with cell media only and a sample without cells. The equilibrium sets were incubated for 24 hours at room temperature, with shaking. After 24 hours of incubation, the supernatants were separated from the cell pellets via centrifugation at 500×g for five minutes. The supernatants of both high [Ab] and low [Ab] equilibrium sets were then run through a KinExA 3200 machine.
Each equilibrium sample set was read in duplicate on the KinExA machine. For low [Ab] equilibrium samples, 6.8 mL and 4.6 mL of each sample were run in duplicate, respectively, for human and cyno CCR8 equilibrium experiments. For high [Ab] equilibrium samples 16 μL and 75 μL of each sample were run in duplicate, respectively for human and cyno CCR8 equilibrium experiments.
For each equilibrium sample the free [Ab] was detected by running the equilibrium samples through the coated beads followed by a quick wash with the running buffer (1×PBS pH7.4+1% BSA+0.05% Sodium Azide). The secondary detection antibody (goat anti-huIgG (H+L) Alexa 647) was run through the flow cell at 680 ng/ml and 500 μL per run. The KinExA voltage output signal was used in KinExA software to calculate the Kd. […]

[2] = target: T2, Peptide 1 (biotinylated N-terminus CCR8 peptide, amino acids 1-12) (human, also: biotinylated, position not given here); test: flow cytometry, biotinylated peptide on streptavidin beads, antibody 5 ug/mL
T2 construct: Captured on streptavidin polystyrene beads
T2 peptide: MDYTLDLSVTTV
Description: (§1) The biotinylated human CCR8 peptides were captured on streptavidin polystyrene beads (Spherotech) in FACS buffer (PBS+2% Fetal Bovine Serum) at a final protein concentration of 50-100 ng/ml and incubated for 30 minutes at room temperature. Beads were washed twice with FACS buffer to remove unbound protein, centrifuged to pellet the beads, and resuspended and pooled together in StabilGuard (SurModics). The pooled biotinylated human CCR8 coated beads were added to hybridoma supernatant samples in a 96-well plate, such that the final antibody concentration was 5.0 μg/mL, and then incubated for one hour at room temperature.
(§2) Plates were washed twice with FACS buffer, centrifuged to pellet the beads, and supernatant was removed and resuspended in FACS buffer to remove unbound antibodies. Alexa Fluor 488 goat anti-human or rat IgG (Fcγ fragment specific) secondary antibodies (Jackson ImmunoResearch) made up in FACS buffer at 5.0 μg/mL were added to each well, resuspended with beads and incubated for 15 minutes at room temperature. Plates were washed twice with FACS buffer, centrifuged to pellet the beads, and supernatant was removed and resuspended in FACS buffer to remove unbound secondary antibodies. Samples were then resuspended in FACS buffer and read on either IntelliCyt® iQue Flow Cytometer. […]

[3] = target: T3, Peptide 4 (biotinylated N-terminus CCR8 peptide, amino acids 19-30) (human, also: biotinylated, position not given here); test: flow cytometry, biotinylated peptide on streptavidin beads
T3 construct: Captured on streptavidin polystyrene beads
T3 peptide: DIFSSPCDAELI
Description: as §1
(§3) Plates were washed twice with FACS buffer, centrifuged to pellet the beads, and supernatant was removed and resuspended in FACS buffer to remove unbound antibodies. Alexa Fluor 488 goat anti-human or rat IgG (Fcγ fragment specific) secondary antibodies (Jackson ImmunoResearch) made up in FACS buffer at 5.0 μg/mL were added to each well, resuspended with beads and incubated for 15 minutes at room temperature. Plates were washed twice with FACS buffer, centrifuged to pellet the beads, and supernatant was removed and resuspended in FACS buffer to remove unbound secondary antibodies. Samples were then resuspended in FACS buffer and read on either IntelliCyt® iQue Flow Cytometer.
(§4) Data are represented as a ratio of geometric mean binding to beads coated with specific peptide divided by geometric mean of binding to a bead coated with a negative control peptide (peptide with unrelated sequence). A value above two represents presence of binding.

[4] = target: T4, Peptide 5 (biotinylated N-terminus CCR8 peptide, amino acids 25-35) (human, also: biotinylated, position not given here); test: as above
T4 construct: Captured on streptavidin polystyrene beads
T4 peptide: CDAELIQTNGK
Description: as §1, §3, §4

[5] = target: T5, Peptide 3 (biotinylated N-terminus CCR8 peptide, amino acids 13-24) (human, also: biotinylated, position not given here); test: as above
T5 construct: Captured on streptavidin polystyrene beads
T5 peptide: TDYYYPDIFSSP
Description: as §1, §3, §4

[6] = target: T6, Peptide 2 (biotinylated N-terminus CCR8 peptide, amino acids 7-18) (human, also: biotinylated, position not given here); test: as above
T6 construct: Captured on streptavidin polystyrene beads
T6 peptide: LSVTTVTDYYYP
Description: as §1, §3, §4

[7] = target: T5, Peptide 3 (biotinylated N-terminus CCR8 …); test: flow cytometry, biotinylated peptide on streptavidin beads, antibody 5 ug/mL
Description: as §1, §2

[8] = target: T2, Peptide 1 (biotinylated N-terminus CCR8 …); test: flow cytometry, biotinylated peptide on streptavidin beads
Description: as §1, §3, §4

T1 sequence (O97665 other isoform, or with tags, fused parts or gaps): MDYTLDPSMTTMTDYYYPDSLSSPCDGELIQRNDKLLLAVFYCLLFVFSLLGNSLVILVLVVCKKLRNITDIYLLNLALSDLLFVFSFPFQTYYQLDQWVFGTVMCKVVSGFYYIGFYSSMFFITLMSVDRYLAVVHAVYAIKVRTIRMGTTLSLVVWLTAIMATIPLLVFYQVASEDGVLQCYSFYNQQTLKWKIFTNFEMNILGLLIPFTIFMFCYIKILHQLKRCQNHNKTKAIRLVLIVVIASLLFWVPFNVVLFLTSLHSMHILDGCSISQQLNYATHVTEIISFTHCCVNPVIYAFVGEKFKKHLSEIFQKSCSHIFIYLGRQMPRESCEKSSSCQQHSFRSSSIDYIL

- Kd [1]: 229 pM
- ratio of geometric mean, peptide bead / negative control peptide bead [2]: 3
- binding result [3]: no binding
- binding result [4]: no binding
- binding result [5]: no binding
- binding result [6]: no binding
B1: Antibody 1 IgG2 (antibody)
heavy: EVQLVESGGGLVKPGGSLRLSCAASGFTFSNARMGWVRQAPGKGLEWVGRIKSKTEGGTRDYAAPVKGRFTISRDDSKNTLYLQMNSLKTEDTAVYYCTSYSGVWGQGTMVTVSSASTKGPSVFPLAPCSRSTSESTAALGCLVKDYFPEPVTVSWNSGALTSGVHTFPAVLQSSGLYSLSSVVTVPSSNFGTQTYTCNVDHKPSNTKVDKTVERKCCVECPPCPAPPVAGPSVFLFPPKPKDTLMISRTPEVTCVVVDVSHEDPEVQFNWYVDGVEVHNAKTKPREEQFNSTFRVVSVLTVVHQDWLNGKEYKCKVSNKGLPAPIEKTISKTKGQPREPQVYTLPPSREEMTKNQVSLTCLVKGFYPSDIAVEWESNGQPENNYKTTPPMLDSDGSFFLYSKLTVDKSRWQQGNVFSCSVMHEALHNHYTQKSLSLSPGK
light: not shown
notes: IgG2; tested as hybridoma supernatant

- ratio of geometric mean, peptide bead / negative control peptide bead [7]: 157
- binding result [3]: no binding
- binding result [4]: no binding
- binding result [8]: no binding
- binding result [6]: no binding
B2: Antibody 2 IgG2 (antibody, V domains shown)
VH: QVQLVESGGGVVQPGRSLRLSCAASGFTFSNYGMHWVRQAPGKGLEWVAVISYDGSNKFYADSVKGRFTISRDNSKKTLYLQMSSLRVEDTAVYYCARAGGIGRFDYWGQGTLVTVSS
VL: DFVMTQTPLSLSVTPGQPASISCKYSQSLLHSDGKTYLFWYLQKPGQPPHLLIYEVSNRFSGVPDRFSGSGSGTDFTLKISRVEAEDVGLYYCMQTLKLPLTFGGGTKVEINR
notes: as for B1
